According to paper PMC10925157:

Molecular target: Acinetobacter baumannii rhodanese-like domain protein (Ab-RLD) (Acinetobacter baumannii)
Test: SEC

Which stoichiometry N does the source give for “Acinetobacter baumannii rhodanese-like domain protein (Ab-RLD) (enzyme)” here?
Its stoichiometry N is 2.
